The source of these data is patent US20180086849A1 (Hoffmann-La Roche, published 2018).

For experiment [1], the target named is human MCSP (Melanoma-associated Chondroitin Sulfate Proteoglycan) on cells (human, UniProt Q6UVK1 30-2322). Put plainly: cell-based or functional assay.
The target of experiment [2] is T1, hu-MCSP(D3 domain)-avi-his (human, UniProt Q6UVK1 1582-2224, biotinylated where used for selection or for coupling to the SA chip).
T1 construct: also called human MCSP(D3 domain)-avi-his; human MCSP D3
T1 sequence: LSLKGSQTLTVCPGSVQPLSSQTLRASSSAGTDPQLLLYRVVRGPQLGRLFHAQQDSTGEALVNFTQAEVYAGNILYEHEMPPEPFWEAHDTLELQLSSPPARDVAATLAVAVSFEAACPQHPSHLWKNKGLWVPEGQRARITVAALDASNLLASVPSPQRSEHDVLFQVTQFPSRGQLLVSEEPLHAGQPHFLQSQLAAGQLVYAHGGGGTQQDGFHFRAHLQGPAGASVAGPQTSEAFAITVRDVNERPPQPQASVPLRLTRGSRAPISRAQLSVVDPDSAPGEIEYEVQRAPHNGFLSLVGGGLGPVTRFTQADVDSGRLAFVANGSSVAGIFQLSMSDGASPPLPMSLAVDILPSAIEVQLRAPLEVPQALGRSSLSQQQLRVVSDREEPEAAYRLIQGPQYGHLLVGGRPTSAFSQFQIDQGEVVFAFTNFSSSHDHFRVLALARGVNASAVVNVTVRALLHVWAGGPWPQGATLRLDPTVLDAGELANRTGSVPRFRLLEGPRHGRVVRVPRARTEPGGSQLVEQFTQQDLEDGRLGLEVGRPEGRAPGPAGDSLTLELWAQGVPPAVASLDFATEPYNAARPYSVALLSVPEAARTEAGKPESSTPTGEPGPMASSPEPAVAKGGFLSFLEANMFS
As to the kind of experiment: SPR (ProteOn XPR36), IgG KD against parental M4-3/ML2. The procedure: (§1) Briefly, carboxymethylated dextran biosensor chips (CM5, GE Healthcare) were activated with N-ethyl-N′-(3-dimethylaminopropyl)-carbodiimide hydrochloride (EDC) and N-hydroxysuccinimide (NHS) according to the supplier's instructions. Anti-human F(ab′)2 fragment specific capture antibody was diluted with 10 mM sodium acetate, pH 5.0 at 50 μg/ml before injection at a flow rate of 10 μl/minute to achieve approximately up to 10.000 response units (RU) of coupled capture antibody. Following the injection of the capture antibody, 1 M ethanolamine was injected to block unreacted groups. For kinetics measurements, Fabs from bacterial supernatant or purified Fabs are injected at a flow rate of 10 ul/minute for 300 s and a dissociation of 300 s for capture baseline stabilization. […] The surface of the sensorchip was regenerated by injection of glycine pH 1.5 for 30 s at 90 ul/min followed by injection of NaOH for 20 s at the same flow rate. Association rates (kon) and dissociation rates (koff) were calculated using a simple one-to-one Langmuir binding model (ProteOn XPR36 Evaluation Software or Scrubber software (BioLogic)) by simultaneously fitting the association and dissociation sensorgrams. The equilibrium dissociation constant (KD) was calculated as the ratio koff/kon. […] Since CDR1 and 2 of the light chain were randomized independent from CDR3, the obtained CDRs were combined during IgG conversion.
(§2) In the IgG format affinities were measured again to the human MCSP antigen (SEQ ID NO. 390), in addition also to the cynomolgus homologue (SEQ ID NO. 389). Method exactly as described for the Fab fragments, just purified IgG from mammalian production were used.

For a further experiment, the target named is T2, cynomolgus MCSP D3 (cynomolgus, UniProt Q6UVK1 1582-2224 (human entry)).
T2 construct: also called cynomolgus homologue; not shown: C-terminal tag
T2 chain: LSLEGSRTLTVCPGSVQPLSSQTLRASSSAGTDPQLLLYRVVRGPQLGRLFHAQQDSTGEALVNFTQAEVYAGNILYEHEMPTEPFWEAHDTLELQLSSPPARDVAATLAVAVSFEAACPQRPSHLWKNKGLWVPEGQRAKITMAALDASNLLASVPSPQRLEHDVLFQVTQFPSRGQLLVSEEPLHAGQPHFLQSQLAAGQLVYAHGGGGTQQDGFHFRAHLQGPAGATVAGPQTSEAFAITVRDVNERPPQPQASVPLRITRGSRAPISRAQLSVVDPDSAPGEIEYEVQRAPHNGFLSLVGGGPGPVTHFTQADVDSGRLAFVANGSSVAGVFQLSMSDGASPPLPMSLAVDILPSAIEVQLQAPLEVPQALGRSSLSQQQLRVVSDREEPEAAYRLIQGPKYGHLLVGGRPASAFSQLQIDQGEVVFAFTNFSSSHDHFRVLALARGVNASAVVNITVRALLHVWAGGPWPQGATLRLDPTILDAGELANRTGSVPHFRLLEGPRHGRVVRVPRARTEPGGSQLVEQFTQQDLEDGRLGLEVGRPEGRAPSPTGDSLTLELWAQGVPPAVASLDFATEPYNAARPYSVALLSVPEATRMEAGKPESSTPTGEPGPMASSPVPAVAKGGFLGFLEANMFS
The experiment is described as above. The protocol:
as §1, §2

Chain of human MCSP (Melanoma-associated Chondroitin Sulfate Proteoglycan) on cells (Q6UVK1 30-2322): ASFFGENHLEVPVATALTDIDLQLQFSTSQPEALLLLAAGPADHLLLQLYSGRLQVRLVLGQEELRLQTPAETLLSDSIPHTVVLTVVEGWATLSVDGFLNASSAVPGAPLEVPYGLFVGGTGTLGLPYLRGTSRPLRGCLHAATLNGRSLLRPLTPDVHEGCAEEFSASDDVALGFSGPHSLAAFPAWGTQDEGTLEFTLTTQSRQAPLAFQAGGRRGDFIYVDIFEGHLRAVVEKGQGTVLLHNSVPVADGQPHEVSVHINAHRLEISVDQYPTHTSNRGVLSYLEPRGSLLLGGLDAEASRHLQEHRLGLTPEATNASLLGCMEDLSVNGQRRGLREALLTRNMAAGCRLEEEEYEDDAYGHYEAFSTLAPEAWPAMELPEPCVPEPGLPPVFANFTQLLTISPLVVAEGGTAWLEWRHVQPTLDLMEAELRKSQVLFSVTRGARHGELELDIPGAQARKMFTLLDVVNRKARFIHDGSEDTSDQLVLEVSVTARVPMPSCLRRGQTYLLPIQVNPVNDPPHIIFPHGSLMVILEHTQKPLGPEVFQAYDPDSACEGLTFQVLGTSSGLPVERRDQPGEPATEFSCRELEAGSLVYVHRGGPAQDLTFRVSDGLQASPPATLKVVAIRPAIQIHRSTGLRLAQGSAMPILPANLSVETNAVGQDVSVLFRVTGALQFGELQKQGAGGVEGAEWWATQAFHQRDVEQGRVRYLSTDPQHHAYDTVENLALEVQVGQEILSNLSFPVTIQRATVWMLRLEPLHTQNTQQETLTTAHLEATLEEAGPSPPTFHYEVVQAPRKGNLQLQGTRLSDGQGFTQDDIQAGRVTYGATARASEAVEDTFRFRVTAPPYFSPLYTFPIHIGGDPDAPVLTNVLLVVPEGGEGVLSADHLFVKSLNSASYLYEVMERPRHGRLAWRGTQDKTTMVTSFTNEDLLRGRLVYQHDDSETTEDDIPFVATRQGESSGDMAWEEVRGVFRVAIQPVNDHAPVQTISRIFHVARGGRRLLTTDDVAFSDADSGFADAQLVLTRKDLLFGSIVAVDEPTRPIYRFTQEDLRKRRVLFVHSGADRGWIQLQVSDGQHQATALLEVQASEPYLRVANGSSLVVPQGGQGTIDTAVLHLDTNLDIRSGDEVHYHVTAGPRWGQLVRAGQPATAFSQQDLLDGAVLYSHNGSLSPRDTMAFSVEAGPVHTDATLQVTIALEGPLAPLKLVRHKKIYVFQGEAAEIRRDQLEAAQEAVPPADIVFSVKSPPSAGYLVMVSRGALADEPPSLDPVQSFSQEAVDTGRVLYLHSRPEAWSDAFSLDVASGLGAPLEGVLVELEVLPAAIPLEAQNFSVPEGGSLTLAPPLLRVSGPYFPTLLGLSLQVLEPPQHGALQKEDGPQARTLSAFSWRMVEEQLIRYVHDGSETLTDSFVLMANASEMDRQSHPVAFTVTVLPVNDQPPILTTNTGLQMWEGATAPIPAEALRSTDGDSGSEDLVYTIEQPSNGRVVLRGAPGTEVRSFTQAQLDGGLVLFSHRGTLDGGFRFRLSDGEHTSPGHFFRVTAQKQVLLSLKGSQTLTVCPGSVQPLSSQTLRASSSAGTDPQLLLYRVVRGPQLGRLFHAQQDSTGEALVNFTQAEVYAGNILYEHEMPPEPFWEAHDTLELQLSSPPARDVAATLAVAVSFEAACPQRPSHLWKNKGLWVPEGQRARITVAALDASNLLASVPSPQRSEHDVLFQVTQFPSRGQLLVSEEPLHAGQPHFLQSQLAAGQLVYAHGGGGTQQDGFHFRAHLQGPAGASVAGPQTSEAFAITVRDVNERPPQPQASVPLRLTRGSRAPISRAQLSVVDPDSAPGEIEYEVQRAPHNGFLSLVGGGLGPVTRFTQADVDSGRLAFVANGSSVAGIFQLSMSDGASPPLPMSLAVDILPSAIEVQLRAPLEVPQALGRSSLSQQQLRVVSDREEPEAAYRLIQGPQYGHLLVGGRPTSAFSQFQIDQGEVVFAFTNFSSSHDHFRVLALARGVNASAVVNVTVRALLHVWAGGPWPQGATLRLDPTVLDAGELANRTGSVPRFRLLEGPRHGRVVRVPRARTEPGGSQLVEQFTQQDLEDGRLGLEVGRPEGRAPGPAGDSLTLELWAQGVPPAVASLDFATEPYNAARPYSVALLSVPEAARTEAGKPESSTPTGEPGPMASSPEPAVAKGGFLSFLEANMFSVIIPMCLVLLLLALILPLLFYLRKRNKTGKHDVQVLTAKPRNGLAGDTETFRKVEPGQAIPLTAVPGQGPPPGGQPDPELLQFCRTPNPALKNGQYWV

B1: 1+1 IgG Crossfab; VL/VH exchange (LC007/V9), anti-MCSP/anti-huCD3 (bispecific antibody)
chain 1: DIVLTQSPSSLSASLGDRVTISCSASQGIRNYLNWYQQRPDGTVKLLIYYTSSLHSGVPSRFSGSGSGTDYSLTISNLEPEDIATYYCQQYSKLPWTFGGGTKLEIKRTVAAPSVFIFPPSDEQLKSGTASVVCLLNNFYPREAKVQWKVDNALQSGNSQESVTEQDSKDSTYSLSSTLTLSKADYEKHKVYACEVTHQGLSSPVTKSFNRGEC
chain 2: DIQMTQSPSSLSASVGDRVTITCRASQDIRNYLNWYQQKPGKAPKLLIYYTSRLESGVPSRFSGSGSGTDYTLTISSLQPEDFATYYCQQGNTLPWTFGQGTKVEIKSSASTKGPSVFPLAPSSKSTSGGTAALGCLVKDYFPEPVTVSWNSGALTSGVHTFPAVLQSSGLYSLSSVVTVPSSSLGTQTYICNVNHKPSNTKVDKKVEPKSCGGGGSGGGGSEVQLQESGPGLVKPSQSLSLTCSVTGYSITSGYYWNWIRQFPGNKLEWMGYITYDGSNNYNPSLKNRISITRDTSKNQFFLKLNSVTTEDTATYYCADFDYWGQGTTLTVSSASTKGPSVFPLAPSSKSTSGGTAALGCLVKDYFPEPVTVSWNSGALTSGVHTFPAVLQSSGLYSLSSVVTVPSSSLGTQTYICNVNHKPSNTKVDKKVEPKSCDKTHTCPPCPAPEAAGGPSVFLFPPKPKDTLMISRTPEVTCVVVDVSHEDPEVKFNWYVDGVEVHNAKTKPREEQYNSTYRVVSVLTVLHQDWLNGKEYKCKVSNKALGAPIEKTISKAKGQPREPQVCTLPPSRDELTKNQVSLSCAVKGFYPSDIAVEWESNGQPENNYKTTPPVLDSDGSFFLVSKLTVDKSRWQQGNVFSCSVMHEALHNHYTQKSLSLSPGK
chain 3: EVQLVESGGGLVQPGGSLRLSCAASGYSFTGYTMNWVRQAPGKGLEWVALINPYKGVSTYNQKFKDRFTISVDKSKNTAYLQMNSLRAEDTAVYYCARSGYYGDSDWYFDVWGQGTLVTVSSASVAAPSVFIFPPSDEQLKSGTASVVCLLNNFYPREAKVQWKVDNALQSGNSQESVTEQDSKDSTYSLSSTLTLSKADYEKHKVYACEVTHQGLSSPVTKSFNRGEC
chain 4: not shown
B1: in experiment [1], the “EC50 of T cell-mediated killing (LDH release) of MV-3 cells, human PBMCs, 21 h” value was determined as 40.9 pM and the “EC50 of T cell-mediated killing (LDH release) of WM266-4 cells, human PBMCs, 21 h” value worked out at 28.4 pM.

B2: 1+1 CrossMab; CL/CH1 exchange (LC007/V9), anti-MCSP/anti-huCD3 (bispecific antibody, human IgG1, kappa, L234A L235A)
chain 1: DIVLTQSPSSLSASLGDRVTISCSASQGIRNYLNWYQQRPDGTVKLLIYYTSSLHSGVPSRFSGSGSGTDYSLTISNLEPEDIATYYCQQYSKLPWTFGGGTKLEIKRTVAAPSVFIFPPSDEQLKSGTASVVCLLNNFYPREAKVQWKVDNALQSGNSQESVTEQDSKDSTYSLSSTLTLSKADYEKHKVYACEVTHQGLSSPVTKSFNRGEC
chain 2: EVQLQESGPGLVKPSQSLSLTCSVTGYSITSGYYWNWIRQFPGNKLEWMGYITYDGSNNYNPSLKNRISITRDTSKNQFFLKLNSVTTEDTATYYCADFDYWGQGTTLTVSSASTKGPSVFPLAPSSKSTSGGTAALGCLVKDYFPEPVTVSWNSGALTSGVHTFPAVLQSSGLYSLSSVVTVPSSSLGTQTYICNVNHKPSNTKVDKKVEPKSCDKTHTCPPCPAPEAAGGPSVFLFPPKPKDTLMISRTPEVTCVVVDVSHEDPEVKFNWYVDGVEVHNAKTKPREEQYNSTYRVVSVLTVLHQDWLNGKEYKCKVSNKALGAPIEKTISKAKGQPREPQVCTLPPSRDELTKNQVSLSCAVKGFYPSDIAVEWESNGQPENNYKTTPPVLDSDGSFFLVSKLTVDKSRWQQGNVFSCSVMHEALHNHYTQKSLSLSPGK
chain 3: DIQMTQSPSSLSASVGDRVTITCRASQDIRNYLNWYQQKPGKAPKLLIYYTSRLESGVPSRFSGSGSGTDYTLTISSLQPEDFATYYCQQGNTLPWTFGQGTKVEIKSSASTKGPSVFPLAPSSKSTSGGTAALGCLVKDYFPEPVTVSWNSGALTSGVHTFPAVLQSSGLYSLSSVVTVPSSSLGTQTYICNVNHKPSNTKVDKKVEPKSC
chain 4: not shown
For B2, in experiment [1], the “EC50 of T cell-mediated killing (LDH release) of MV-3 cells, human PBMCs, 21 h” value turned out to be 88.4 pM and the “EC50 of T cell-mediated killing (LDH release) of WM266-4 cells, human PBMCs, 21 h” value turned out to be 53.9 pM.

B3: M4-3/ML2 (E10/G3) (IgG) (antibody, V domains shown)
VH: QVQLQESGPGLVKPSQTLSLTCTVSGGSITSGYYWNWIRQHPGKGLEWIGYITYDGSNNYNPSLKSRVTISRDTSKNQFSLKLSSVTAADTAVYYCADFDYWGQGTLVTVSS
VL: DIQMTQSPSSLSASVGDRVTITCRASYGIRGYLNWYQQKPGKAPKLLIYYTSSLHSGVPSRFSGSGSGTDFTLTISSLQPEDFATYHCQQYSALPWTFGQGTKVEIK
notes: Human IgG1 format
For B3, the “Comparative binding affinity - Fold increase over parent” value in experiment [2] is 5 fold; with cynomolgus MCSP D3 it was 2.2 fold.

B4: M4-3(C1)/ML2(G3) (IgG) (antibody, V domains shown)
VH: QVQLQESGPGLVKPSQTLSLTCTVSGGSITSGYYWNWIRQHPGKGLEWIGYITFDGSNNYNPSLKSRVTISRDTSKNQFSLKLSSVTAADTAVYYCADFDYWGQGTLVTVSS
VL: DIQMTQSPSSLSASVGDRVTITCRASQGIRNYLNWYQQKPGKAPKLLIYYTSSLHSGVPSRFSGSGSGTDYTLTISSLQPEDFATYYCQQYSALPWTFGQGTKVEIKR
notes: Human IgG1; also called MCSP M4-3(C1) ML2(G3)
For the molecule B4, the “Comparative binding affinity - Fold increase over parent” value in experiment [2] is 28.6 fold; in the experiment with cynomolgus MCSP D3, 10 fold.

B5: 2+1 IgG Crossfab; CL/CH1 exchange (M4-3 ML2/V9), anti-MCSP/anti-huCD3 (bispecific antibody)
chain 1: DIQMTQSPSSLSASVGDRVTITCRASQDIRNYLNWYQQKPGKAPKLLIYYTSRLESGVPSRFSGSGSGTDYTLTISSLQPEDFATYYCQQGNTLPWTFGQGTKVEIKSSASTKGPSVFPLAPSSKSTSGGTAALGCLVKDYFPEPVTVSWNSGALTSGVHTFPAVLQSSGLYSLSSVVTVPSSSLGTQTYICNVNHKPSNTKVDKKVEPKSC
chain 2: not shown
chain 3: QVQLQESGPGLVKPSQTLSLTCTVSGGSITSGYYWNWIRQHPGKGLEWIGYITYDGSNNYNPSLKSRVTISRDTSKNQFSLKLSSVTAADTAVYYCADFDYWGQGTLVTVSSASTKGPSVFPLAPSSKSTSGGTAALGCLVKDYFPEPVTVSWNSGALTSGVHTFPAVLQSSGLYSLSSVVTVPSSSLGTQTYICNVNHKPSNTKVDKKVEPKSCDKTHTCPPCPAPEAAGGPSVFLFPPKPKDTLMISRTPEVTCVVVDVSHEDPEVKFNWYVDGVEVHNAKTKPREEQYNSTYRVVSVLTVLHQDWLNGKEYKCKVSNKALGAPIEKTISKAKGQPREPQVCTLPPSRDELTKNQVSLSCAVKGFYPSDIAVEWESNGQPENNYKTTPPVLDSDGSFFLVSKLTVDKSRWQQGNVFSCSVMHEALHNHYTQKSLSLSPGK
chain 4: not shown
Turning to B5, in experiment [1], the “EC50 of T cell-mediated killing (LDH release) of MV-3 cells, human PBMCs, 27 h” value was around 11.7 pM and the “EC50 of T cell-mediated killing (LDH release) of WM266-4 cells, human PBMCs, 26 h” value was determined as 12.9 pM.
